Test results as given in patent EP4745153A1, “GLP-1, GIP AND GCG RECEPTOR […] USE THEREOF” (Jiangsu Hengrui Pharmaceuticals Co., Ltd., priority 2023, dated 2025).
Starred links: 1 amine or outer side, 2 acyl side, 3 side chain; linkers in the order of their positions; H or OH if unused. Non-standard residues stand in square brackets, D forms with d. Groups on a side chain read outwards from the residue. No end group written: not given here. *: point of attachment. C20 diacid = O=C(O)CCCCCCCCCCCCCCCCCCC(=O)*; γGlu = O=C(O)[C@H](CCC(=O)[*:2])N[*:1]; αMeL = CC(C)C[C@](C)(N)C(=O)O; αMeK = C[C@](N)(CCCCN)C(=O)O; AEEA = NCCOCCOCC(=O)O; Aib = CC(C)(N)C(=O)O

B1: Compound No. 0109 (peptide)
peptide: H[Aib]HGTFTSDYSKYLEK([AEEA-AEEA-γGlu-C20 diacid])[αMeK]AAQEFVEWLLAGGPSSGAPPPS-NH2
modifications: N-terminus assumed
SMILES: CC(C)C[C@H](NC(=O)[C@H](CC(C)C)NC(=O)[C@H](Cc1c[nH]c2ccccc12)NC(=O)[C@H](CCC(=O)O)NC(=O)[C@@H](NC(=O)[C@H](Cc1ccccc1)NC(=O)[C@H](CCC(=O)O)NC(=O)[C@H](CCC(N)=O)NC(=O)[C@H](C)NC(=O)[C@H](C)NC(=O)[C@](C)(CCCCN)NC(=O)[C@H](CCCCNC(=O)COCCOCCNC(=O)COCCOCCNC(=O)CC[C@H](NC(=O)CCCCCCCCCCCCCCCCCCC(=O)O)C(=O)O)NC(=O)[C@H](CCC(=O)O)NC(=O)[C@H](CC(C)C)NC(=O)[C@H](Cc1ccc(O)cc1)NC(=O)[C@H](CCCCN)NC(=O)[C@H](CO)NC(=O)[C@H](Cc1ccc(O)cc1)NC(=O)[C@H](CC(=O)O)NC(=O)[C@H](CO)NC(=O)[C@@H](NC(=O)[C@H](Cc1ccccc1)NC(=O)[C@@H](NC(=O)CNC(=O)[C@H](Cc1c[nH]cn1)NC(=O)C(C)(C)NC(=O)[C@@H](N)Cc1c[nH]cn1)[C@@H](C)O)[C@@H](C)O)C(C)C)C(=O)N[C@@H](C)C(=O)NCC(=O)NCC(=O)N1CCC[C@H]1C(=O)N[C@@H](CO)C(=O)N[C@@H](CO)C(=O)NCC(=O)N[C@@H](C)C(=O)N1CCC[C@H]1C(=O)N1CCC[C@H]1C(=O)N1CCC[C@H]1C(=O)N[C@@H](CO)C(N)=O
B2: Compound No. 0108 (peptide)
peptide: H[Aib]HGTFTSDYSKY[αMeL]EK([AEEA-AEEA-γGlu-C20 diacid])KAAQEFVEWLLAGGPSSGAPPPS-NH2
modifications: N-terminus assumed
SMILES: CC(C)C[C@H](NC(=O)[C@H](CC(C)C)NC(=O)[C@H](Cc1c[nH]c2ccccc12)NC(=O)[C@H](CCC(=O)O)NC(=O)[C@@H](NC(=O)[C@H](Cc1ccccc1)NC(=O)[C@H](CCC(=O)O)NC(=O)[C@H](CCC(N)=O)NC(=O)[C@H](C)NC(=O)[C@H](C)NC(=O)[C@H](CCCCN)NC(=O)[C@H](CCCCNC(=O)COCCOCCNC(=O)COCCOCCNC(=O)CC[C@H](NC(=O)CCCCCCCCCCCCCCCCCCC(=O)O)C(=O)O)NC(=O)[C@H](CCC(=O)O)NC(=O)[C@](C)(CC(C)C)NC(=O)[C@H](Cc1ccc(O)cc1)NC(=O)[C@H](CCCCN)NC(=O)[C@H](CO)NC(=O)[C@H](Cc1ccc(O)cc1)NC(=O)[C@H](CC(=O)O)NC(=O)[C@H](CO)NC(=O)[C@@H](NC(=O)[C@H](Cc1ccccc1)NC(=O)[C@@H](NC(=O)CNC(=O)[C@H](Cc1c[nH]cn1)NC(=O)C(C)(C)NC(=O)[C@@H](N)Cc1c[nH]cn1)[C@@H](C)O)[C@@H](C)O)C(C)C)C(=O)N[C@@H](C)C(=O)NCC(=O)NCC(=O)N1CCC[C@H]1C(=O)N[C@@H](CO)C(=O)N[C@@H](CO)C(=O)NCC(=O)N[C@@H](C)C(=O)N1CCC[C@H]1C(=O)N1CCC[C@H]1C(=O)N1CCC[C@H]1C(=O)N[C@@H](CO)C(N)=O

Key:
Assay in all cases: cell-based or functional assay
human glucagon receptor = human glucagon receptor (human, UniProt P47871 26-477)
human glucagon receptor, sequence (P47871 26-477): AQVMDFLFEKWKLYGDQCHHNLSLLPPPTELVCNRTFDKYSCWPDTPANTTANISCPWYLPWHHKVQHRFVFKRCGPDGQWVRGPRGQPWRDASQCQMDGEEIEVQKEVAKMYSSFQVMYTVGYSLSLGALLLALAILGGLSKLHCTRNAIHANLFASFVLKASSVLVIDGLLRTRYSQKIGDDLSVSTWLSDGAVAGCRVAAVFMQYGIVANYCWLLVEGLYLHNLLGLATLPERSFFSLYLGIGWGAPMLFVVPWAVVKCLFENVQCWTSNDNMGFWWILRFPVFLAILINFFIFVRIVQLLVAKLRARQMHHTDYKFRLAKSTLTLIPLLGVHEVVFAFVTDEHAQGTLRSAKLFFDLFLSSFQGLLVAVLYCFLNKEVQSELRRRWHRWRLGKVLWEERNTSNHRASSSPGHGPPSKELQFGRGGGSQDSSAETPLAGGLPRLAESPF

[1] = target: T1, human glucose-dependent insulinotropic polypeptide receptor (human, UniProt P48546 22-466)
T1 sequence (looked up): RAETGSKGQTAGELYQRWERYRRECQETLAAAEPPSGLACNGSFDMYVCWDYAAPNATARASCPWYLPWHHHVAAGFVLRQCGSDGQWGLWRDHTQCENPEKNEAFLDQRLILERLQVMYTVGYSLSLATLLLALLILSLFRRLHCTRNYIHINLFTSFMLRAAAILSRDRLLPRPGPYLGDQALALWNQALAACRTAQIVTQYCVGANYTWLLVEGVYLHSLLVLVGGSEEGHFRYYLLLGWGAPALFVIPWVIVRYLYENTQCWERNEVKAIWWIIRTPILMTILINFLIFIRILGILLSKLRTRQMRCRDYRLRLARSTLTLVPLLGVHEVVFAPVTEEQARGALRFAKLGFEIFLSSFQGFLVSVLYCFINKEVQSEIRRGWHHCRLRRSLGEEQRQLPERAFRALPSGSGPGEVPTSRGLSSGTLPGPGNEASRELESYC

[2] = target: human glucagon-like peptide-1 receptor (human, UniProt P43220 24-463)

Row | Binder | Activity against human GCGR (EC50 nM) (human glucagon receptor) [nM] | Activity against human GIPR (EC50 nM) [1] [nM] | Activity against human GLP-1R (EC50 nM) [2] [nM]
1 | B1 | 0.031 | 0.027 | 0.011
2 | B2 | 0.315 | 0.078 | 0.014
